Results from patent US20100325744A1.
Numbering of substitutions follows the chain as printed. Numbers in names are those of the source. Each block holds one binder with its values, some of them ahead of it.

Experiments:
2F8-HG-T234A (human) = assay: self-association of HG half-molecules; non-covalent nano-electrospray mass spectrometry
2F8-HG-Y275A (human) [1] = assay: as above
2F8-HG-Y275A (human) [2] = assay: self-association; non-covalent nano-electrospray mass spectrometry at 0.01-10 µM
2F8-HG-L236V (human) [3] = assay: self-association of HG half-molecules; non-covalent nano-electrospray mass spectrometry
2F8-HG-L236V (human) [4] = assay: self-association; non-covalent nano-electrospray mass spectrometry at 0.01-10 µM
2F8-HG-F273L (human) = assay: self-association of HG half-molecules; non-covalent nano-electrospray mass spectrometry
2F8-HG-L236A (human) = assay: as above
2F8-HG-F273A (human) [5] = assay: as above
2F8-HG-F273A (human) [6] = assay: self-association; non-covalent nano-electrospray mass spectrometry at 0.01-10 µM

percentage molecules present as monomers (2F8-HG-T234A (human)): > 80%
B1: 2F8-HG-T234A (antibody, part only; not given: 2F8 variable domains, not shown: a dimerising Fc or GST)
heavy, part: ASTKGPSVFPLAPCSRSTSESTAALGCLVKDYFPEPVTVSWNSGALTSGVHTFPAVLQSSGLYSLSSVVTVPSSSLGTKTYTCNVDHKPSNTKVDKRVAPEFLGGPSVFLFPPKPKDTLMISRTPEVTCVVVDVSQEDPEVQFNWYVDGVEVHNAKTKPREEQFNSTYRVVSVLTVLHQDWLNGKEYKCKVSNKGLPSSIEKTISKAKGQPREPQVYTLPPSQEEMTKNQVSLACLVKGFYPSDIAVEWESNGQPENNYKTTPPVLDSDGSFFLYSRLTVDKSRWQEGNVFSCSVMHEALHNHYTQKSLSLSLGK

percentage molecules present as monomers (2F8-HG-Y275A (human) [1]): > 80%
percentage monomeric at low concentrations (2F8-HG-Y275A (human) [2]): 100%
B2: 2F8-HG-Y275A (antibody, part only; not given: 2F8 variable domains, not shown: a dimerising Fc or GST)
heavy, part: B1 heavy, part with A234T, Y275A

percentage molecules present as monomers (2F8-HG-L236V (human) [3]): > 80%
percentage monomeric at low concentrations (2F8-HG-L236V (human) [4]): 100%
B3: 2F8-HG-L236V (antibody, part only; not given: 2F8 variable domains, not shown: a dimerising Fc or GST)
heavy, part: B1 heavy, part with A234T, L236V

percentage molecules present as monomers (2F8-HG-F273L (human)): > 80%
B4: 2F8-HG-F273L (antibody, part only; not given: 2F8 variable domains, not shown: a dimerising Fc or GST)
heavy, part: B1 heavy, part with A234T, F273L

percentage molecules present as monomers (2F8-HG-L236A (human)): > 80%
B5: 2F8-HG-L236A (antibody, part only; not given: 2F8 variable domains, not shown: a dimerising Fc or GST)
heavy, part: B1 heavy, part with A234T, L236A

percentage molecules present as monomers (2F8-HG-F273A (human) [5]): > 80%
percentage monomeric at low concentrations (2F8-HG-F273A (human) [6]): 100%
B6: 2F8-HG-F273A (antibody, part only; not given: 2F8 variable domains, not shown: a dimerising Fc or GST)
heavy, part: B1 heavy, part with A234T, F273A
